Assays:
[1] = target: VEGFR2 fusion protein (extracellular domain of hVEGFR2 and intracellular domain of hEpoR) on Ba/F3 cells (human) (UniProt P35968); experiment: cell-based or functional assay
[2] = target: VEGFR2 (Homo sapiens (Human), UniProt P35968 20-764); experiment: SPR (Biacore), 10Fn3 protein or Fc fusion captured by anti-His or anti-human antibody, target in flow, 25 C, 1:1 fit
Protocol: (§1) The binding properties of Fc-¹⁰Fn3 fusion proteins and non-Fc ¹⁰Fn3 proteins were characterized by Surface Plasmon Resonance (SPR). Anti-human or anti-Histidine antibody was immobilized on a Biacore chip, and ¹⁰ Fn3 proteins and Fc-¹⁰Fn3 fusions were captured on the chip surface. Varying concentrations of target were placed into the flow solution using MgCl2 (3 M) for chip regeneration between cycles. Kinetic determinations were performed at 25° C. Evaluation of the kinetic parameters was performed using the 1:1 binding algorithm on the Biacore Evaluation software.

[3] = target: T1, human PCSK9 (human, UniProt Q8NBP7 31-692); experiment: cell-based or functional assay
[4] = target: T1, human PCSK9; experiment: SPR (Biacore), 10Fn3 protein or Fc fusion captured by anti-His or anti-human antibody, target in flow, 25 C, 1:1 fit
Protocol: as §1

[5] = target: T1, human PCSK9; experiment: PCSK9:ATI-972 FRET assay, 5 nM human PCSK9; displaced competitor: biotinylated ATI-972
[6] = target: T1, human PCSK9; experiment: PCSK9:EGFA FRET competition assay, 5 nM PCSK9; competitor EGFA peptide
Excerpt: (§2) Two fluorescence resonance energy transfer (FRET) based assays were used to determine the competitive binding potency of PRD460 and other adnectins to hPCSK9. The PCSK9:EGFA FRET assay measures the binding of PCSK9 to the LDLR, using a soluble epidermal growth factor precursor homology domain-A (EGFA) peptide and recombinant human PCSK9.

[7] = target: T1, human PCSK9; experiment: PCSK9:ATI-972 FRET competition assay, 5 nM human PCSK9; competitor biotinylated ATI-972
Excerpt: as §2

[8] = target: T1, human PCSK9; experiment: SPR (Biacore), ATI-1081 captured by anti-His antibody, hPCSK9 in flow, 25 C, 1:1 fit
Protocol: The binding characteristics were characterized by Surface Plasmon Resonance (SPR). […] Varying concentrations of hPCSK9 were placed into the flow solution using MgCl2 (3 M) for chip regeneration between cycles. […] Duplicate experiments for PRD460 were performed on different days. Kinetic determinations were performed at 25° C. Evaluation of the kinetic parameters was performed using the 1:1 Binding algorithm on the Biacore Evaluation software.

With CT322 (designed binder) the IC50 (nM), Ba/F3 proliferation assay [1] was 7.96 nM and the Relative Potency, Ba/F3 proliferation assay [1] was 1.

B1: C7FL (designed binder)
chain: VSDVPRDLEVVAATPTSLLISWRHPHFPTRYYRITYGETGGNSPVQEFTVPLQPPTATISGLKPGVDYTITVYAVTDGRNGRLLSIPISINYRT
notes: No Fc; anti-VEGFR2 10Fn3; not shown: the N-terminal extension, C-terminal tail and His tag of the non-Fc C7FL protein, none of which is stated for it
Work on B1 yielded a Kd [2] of 11.5 nM, a koff [2] of 0.000236 s⁻¹ and a kon [2] of 20500 M⁻¹ s⁻¹.

B2: 1784F03 (designed binder, from a related filing)
chain: MGVSDVPRDLEVVAATPTSLLISWRPPIHAYGYYRITYGETGGNSPVQEFTVPIVEGTATISGLKPGVDYTITVYAVEYTFKHSGYYHRPISINYRTEIDKPSQHHHHHH
In the case of B2, the IC50, HepG2 depletion inhibition [3] is reported as 13.2 nM, the Kd [4] is reported as 34.5 nM and the koff [4] is reported as 0.000396 s⁻¹. For the same molecule, the kon [4] was 11500 M⁻¹ s⁻¹.

B3: 1813E02 (designed binder, from a related filing)
chain: MGVSDVPRDLEVVAATPTSLLISWSPPANGYGYYRITYGETGGNSPVQEFTVPVGRGTATISGLKPGVDYTITVYAVEYTYKGSGYYHRPISINYRTEIDKPSQHHHHHH
In the case of B3, the IC50, HepG2 depletion inhibition [3] is reported as 10.6 nM, the Kd [4] is reported as 22.2 nM and the koff [4] is reported as 0.000388 s⁻¹. The kon [4] was 17500 M⁻¹ s⁻¹.

B4: ATI-1174 (designed binder)
chain: MGVSDVPRDLEVVAATPTSLLISWVPPSDDYGYYRITYGETGGNSPVQEFTVPIGKGTATISGLKPGVDYTITVYAVEFPWPHAGYYHRPISINYRTEIEKPCQ
modifications: pegylated (site and PEG size not stated)
notes: also called pegylated anti-PCSK9 Adnectin
In the case of B4, the “IC50 (read off the curve)” value [5] is reported as roughly 0.9 nM, the EC50 [6] is reported as 1.9 nM and the “EC50 of inhibition of PCSK9-AF647 intracellular fluorescence in HepG2 cells” value [3] is reported as 10 nM. The “EC50 of inhibition of PCSK9-induced LDLR depletion from HepG2 cell surface (FACS)” value [3] was 8 nM.

B5: ATI-1114 (designed binder)
chain: MGVSDVPRDLEVVAATPTSLLISWVPPSDDYGYYRITYGETGGNSPVQEFTVPIGKGTATISGLKPGVDYTITVYAVEFPWPHAGYYHRPISINYRTGSGCHHHHHH
modifications: pegylated (site and PEG size not stated)
B5 showed an EC50 [7] of 0.8 nM.

B6: ATI-1081 (designed binder)
chain: MGVSDVPRDLEVVAATPTSLLISWVPPSDDYGYYRITYGETGGNSPVQEFTVPIGKGTATISGLKPGVDYTITVYAVEFPWPHAGYYHRPISINYRTEIDKPSQHHHHHH
notes: No Fc
With B6 the EC50 [7] was 2.8 nM, the Kd [8] was 6.7 nM and the koff [8] was 0.000245 s⁻¹. The kon [8] was 36500 M⁻¹ s⁻¹, the EC50 [6] was 3.7 nM and the “EC50 of inhibition of PCSK9-induced LDLR depletion from HepG2 cell surface (FACS)” value [3] was 9 nM. The Kd [4] was 6.7 nM, the koff [4] was 0.000245 s⁻¹ and the kon [4] was 36500 M⁻¹ s⁻¹.

Source: US20210122805A1 (Bristol-Myers Squibb, published 2021)
